Source: patent publication US20240150473A1 (SURROZEN OPERATING, published 2024)

T1: biotinylated LRP6E3E4 (UniProt O75581 631-1246, limits assumed, biotinylated (site not stated))
T1 construct: domain: E3E4; also called Lrp6E3E4 domain; Lrp6 receptor
T1 sequence (looked up): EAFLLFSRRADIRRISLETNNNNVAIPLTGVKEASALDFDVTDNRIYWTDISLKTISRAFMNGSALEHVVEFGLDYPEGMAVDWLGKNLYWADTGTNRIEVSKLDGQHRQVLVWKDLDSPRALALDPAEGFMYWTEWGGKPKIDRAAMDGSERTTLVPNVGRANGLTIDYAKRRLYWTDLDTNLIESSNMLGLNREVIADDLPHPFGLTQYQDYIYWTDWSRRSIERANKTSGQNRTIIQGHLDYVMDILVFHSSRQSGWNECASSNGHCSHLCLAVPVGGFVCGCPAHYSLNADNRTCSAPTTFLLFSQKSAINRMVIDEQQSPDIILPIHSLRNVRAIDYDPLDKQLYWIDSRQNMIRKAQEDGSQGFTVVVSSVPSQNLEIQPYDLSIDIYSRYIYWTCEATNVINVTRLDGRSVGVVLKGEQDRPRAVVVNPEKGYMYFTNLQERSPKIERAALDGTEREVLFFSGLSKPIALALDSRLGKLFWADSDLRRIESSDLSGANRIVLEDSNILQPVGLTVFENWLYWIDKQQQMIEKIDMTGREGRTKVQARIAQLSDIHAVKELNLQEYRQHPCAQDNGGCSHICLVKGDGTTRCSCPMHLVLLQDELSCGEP

T2: Fzd8 CRD (biotinylated) (UniProt Q9H461 28-155, limits assumed, biotinylated (site not stated))
T2 construct: domain: CRD
T2 sequence (looked up): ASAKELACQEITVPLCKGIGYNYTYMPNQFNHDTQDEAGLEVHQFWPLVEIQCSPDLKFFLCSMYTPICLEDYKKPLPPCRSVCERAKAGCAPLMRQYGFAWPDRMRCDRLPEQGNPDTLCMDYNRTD

T3: Fzd5 CRD (biotinylated) (UniProt Q13467 27-155, limits assumed, biotinylated (site not stated))
T3 construct: domain: CRD
T3 sequence (looked up): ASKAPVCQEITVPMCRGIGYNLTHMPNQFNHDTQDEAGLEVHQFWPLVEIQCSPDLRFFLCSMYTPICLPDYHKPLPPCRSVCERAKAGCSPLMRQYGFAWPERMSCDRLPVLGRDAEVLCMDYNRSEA


Key:
biotinylated LRP6E3E4 [1] = target: T1, biotinylated LRP6E3E4; assay: BLI (Octet Red 96), biotinylated LRP6E3E4 on streptavidin sensor, 1:1 fit; SEC fraction D3 (second block)
Description: (§1) Proteins were purified using His-Complete resin (Roche, USA) following standard procedures. Expression levels and homogeneity of VHH26 and its humanized variants were analyzed by SDS-PAGE and SEC (size-exclusion chromatography). […] Biotinylated LRP6E3E4 diluted to 50 nM in the running buffer (PBS, 0.05% Tween-20, 0.5% BSA, pH 7.2) were captured to the SA biosensor followed by dipping into wells containing the indicated VHH26 proteins at different concentrations in running buffer or into a well with only running buffer as a reference channel. KD for each binder was calculated by Octet System software, based on fitting to a 1:1 binding model. Kinetics values (Kon, Koff, KD) from each experiment was calculated from seven technical replicates of different concentrations of the molecule tested with Octet Data Analysis 9.0 (PALL ForteBio, Fremont, CA).
(§2) Central fractions of each of these peaks were examined by Octect-BLI for their ability interact with Lrp6. Kinetics parameters such as kon, koff, and KD for interaction between VHH26 constructs and Lrp6E3E4 domain are listed in Table 2.

biotinylated LRP6E3E4 [2] = target: T1, biotinylated LRP6E3E4; assay: BLI (Octet Red 96), biotinylated LRP6E3E4 on streptavidin sensor, 1:1 fit; SEC fraction D3 (first block)
Description: as §1, §2

Fzd8 CRD (biotinylated) = target: T2, Fzd8 CRD (biotinylated); assay: BLI (Octet Red 96), biotinylated Fzd8 CRD captured on SA biosensor, R2M13 as analyte at several concentrations, 1:1 fit; the legend paragraph 33 says IgG, the methods paragraph 311 say R2M13 Fab
Description: (§3) Biotinylated CRDs of Fzds diluted to 25 nM in the running buffer (PBS, 0.05% Tween-20, 0.5% BSA, pH 7.2) were captured to the SA biosensor followed by dipping into wells containing the R2M13 Fab protein at different concentrations in running buffer or into a well with only running buffer as a reference channel. KD for each binder was calculated by Octet System software, based on fitting to a 1:1 binding model. Binding specificities of R2M13 IgG to 10 Fzds were also examined by the BLI assay. Biotinylated Fzd CRDs (H. Chen, Lu, Lee, & Li, 2020) diluted to 50 nM in the running buffer were captured to the SA biosensor followed by dipping into wells containing R2M13 IgG at 200 nM in running buffer.

Fzd5 CRD (biotinylated) = target: T3, Fzd5 CRD (biotinylated); assay: BLI (Octet Red 96), biotinylated Fzd5 CRD captured on SA biosensor, R2M13 as analyte at several concentrations, 1:1 fit; the legend paragraph 32 says IgG, the methods paragraph 311 say R2M13 Fab
Description: as §3

Kd (biotinylated LRP6E3E4 [1])	Kd (biotinylated LRP6E3E4 [2])	Kd (Fzd8 CRD (biotinylated))	Kd (Fzd5 CRD (biotinylated))	Binder
22 nM	17 nM	–	–	VHH26 (parental) (VHH, Expressed in Expi293 cells with a C-terminal hexa-histidine tag; also called VHH26_His; parental VHH26) VHH: DVQLVESGGGLVQAGGSLRLACAGSGRIFAIYDIAWYRHPPGNQRELVAMIRPVVTEIDYADSVKGRFTISRNNAMKTVYLQMNNLKPEDTAVYYCNAKRPWGSRDEYWGQGTQVTVSS
–	–	98.5 nM	57.5 nM	R2M13 IgG (the Fzd5,8 binder IgG of R2M13-26) (antibody, V domains shown, also called R2M13 antibody) VH: EVQLLQSGAEVKKPGSSVKVSCKASGGTFTYRYLHWVRQAPGQGLEWMGGIIPIFGTGNYAQKFQGRVTITADESTSTAYMELSSLRSEDTAVYYCASSMVRVPYYYGMDVWGQGTLVTVSS VL: not shown
